Key:
Assay in all cases: Kd (EC50 corrected by depletion factor)
MRPL49 = MRPL49 (UniProt Q13405)
In short: (§1)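 Over three biological replicates and two independent experiments, proteins captured on NHS-Sepharose beads carrying 5′-amino-C6 RNA oligos were quantified by label-free LC-MS/MS and normalised to the control. Capture lasted 30 min at 4°C and followed a 1 h pre-incubation at 4°C of HEK293-FT lysate (2.5 mg protein/well) with the same oligos in free form (0 nM to 30 μM). EC50 was taken from a four-parameter log-logistic fit, and Kd was EC50 corrected by a protein-dependent depletion factor.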

ZRANB2 = biological target: T1, ZRANB2 (UniProt O95218)
T1 sequence: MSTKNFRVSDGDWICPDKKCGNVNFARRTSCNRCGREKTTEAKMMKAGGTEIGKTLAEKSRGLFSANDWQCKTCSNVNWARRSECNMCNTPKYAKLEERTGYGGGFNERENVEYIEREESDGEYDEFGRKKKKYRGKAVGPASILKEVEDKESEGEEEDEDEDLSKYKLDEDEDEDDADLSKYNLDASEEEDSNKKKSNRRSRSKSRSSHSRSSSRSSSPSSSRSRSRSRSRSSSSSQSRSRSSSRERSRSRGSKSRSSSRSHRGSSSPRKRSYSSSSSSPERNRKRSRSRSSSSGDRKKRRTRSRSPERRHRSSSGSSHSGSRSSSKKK
In short: as §1

HNRNPR = biological target: T2, HNRNPR (UniProt O43390)
T2 sequence: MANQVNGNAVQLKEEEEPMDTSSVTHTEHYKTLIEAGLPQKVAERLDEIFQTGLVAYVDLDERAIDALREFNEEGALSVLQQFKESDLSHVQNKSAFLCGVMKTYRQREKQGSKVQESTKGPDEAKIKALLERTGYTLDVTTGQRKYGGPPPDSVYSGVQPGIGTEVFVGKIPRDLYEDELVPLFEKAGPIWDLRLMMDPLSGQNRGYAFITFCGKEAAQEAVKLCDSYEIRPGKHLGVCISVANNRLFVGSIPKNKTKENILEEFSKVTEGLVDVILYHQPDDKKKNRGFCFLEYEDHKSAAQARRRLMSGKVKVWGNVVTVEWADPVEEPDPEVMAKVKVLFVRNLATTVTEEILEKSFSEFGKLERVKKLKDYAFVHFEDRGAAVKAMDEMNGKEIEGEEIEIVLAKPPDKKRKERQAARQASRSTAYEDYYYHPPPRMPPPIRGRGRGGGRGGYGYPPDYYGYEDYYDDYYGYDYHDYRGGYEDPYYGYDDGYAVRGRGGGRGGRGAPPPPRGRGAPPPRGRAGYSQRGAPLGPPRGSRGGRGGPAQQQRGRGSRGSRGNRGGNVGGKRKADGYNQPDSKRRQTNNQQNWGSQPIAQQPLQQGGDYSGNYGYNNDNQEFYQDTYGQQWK
In short: as §1

HNRNPF = biological target: T3, HNRNPF (UniProt P52597)
T3 sequence: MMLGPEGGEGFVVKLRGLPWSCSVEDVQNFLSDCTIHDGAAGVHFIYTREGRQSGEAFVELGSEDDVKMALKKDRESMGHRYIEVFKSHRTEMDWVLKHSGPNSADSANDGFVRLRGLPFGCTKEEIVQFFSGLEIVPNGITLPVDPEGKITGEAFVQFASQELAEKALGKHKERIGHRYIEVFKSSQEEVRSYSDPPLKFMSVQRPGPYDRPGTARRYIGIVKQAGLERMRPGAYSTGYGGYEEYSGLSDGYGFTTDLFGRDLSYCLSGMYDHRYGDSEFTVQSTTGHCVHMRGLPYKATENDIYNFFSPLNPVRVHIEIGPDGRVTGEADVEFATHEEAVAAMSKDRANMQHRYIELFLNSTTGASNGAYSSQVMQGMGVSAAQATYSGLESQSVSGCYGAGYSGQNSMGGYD
In short: as §1

CSTF1 = biological target: T4, CSTF1 (UniProt Q05048)
T4 sequence: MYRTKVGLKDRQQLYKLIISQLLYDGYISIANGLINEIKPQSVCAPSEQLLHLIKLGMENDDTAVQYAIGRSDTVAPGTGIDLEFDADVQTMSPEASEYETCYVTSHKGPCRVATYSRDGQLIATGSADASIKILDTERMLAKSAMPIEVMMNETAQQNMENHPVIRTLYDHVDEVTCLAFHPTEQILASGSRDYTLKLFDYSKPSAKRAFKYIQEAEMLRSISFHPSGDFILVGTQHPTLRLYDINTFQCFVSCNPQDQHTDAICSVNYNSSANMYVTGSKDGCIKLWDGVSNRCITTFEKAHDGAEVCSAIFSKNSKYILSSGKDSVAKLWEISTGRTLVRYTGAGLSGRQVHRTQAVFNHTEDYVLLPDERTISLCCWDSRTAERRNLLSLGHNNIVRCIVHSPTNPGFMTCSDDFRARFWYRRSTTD
In short: as §1

SKIV2L = SKIV2L (UniProt Q15477)
In short: as §1

ATIC = ATIC (UniProt P31939)
In short: as §1

GRSF1 = biological target: T5, GRSF1 (UniProt Q12849)
T5 sequence: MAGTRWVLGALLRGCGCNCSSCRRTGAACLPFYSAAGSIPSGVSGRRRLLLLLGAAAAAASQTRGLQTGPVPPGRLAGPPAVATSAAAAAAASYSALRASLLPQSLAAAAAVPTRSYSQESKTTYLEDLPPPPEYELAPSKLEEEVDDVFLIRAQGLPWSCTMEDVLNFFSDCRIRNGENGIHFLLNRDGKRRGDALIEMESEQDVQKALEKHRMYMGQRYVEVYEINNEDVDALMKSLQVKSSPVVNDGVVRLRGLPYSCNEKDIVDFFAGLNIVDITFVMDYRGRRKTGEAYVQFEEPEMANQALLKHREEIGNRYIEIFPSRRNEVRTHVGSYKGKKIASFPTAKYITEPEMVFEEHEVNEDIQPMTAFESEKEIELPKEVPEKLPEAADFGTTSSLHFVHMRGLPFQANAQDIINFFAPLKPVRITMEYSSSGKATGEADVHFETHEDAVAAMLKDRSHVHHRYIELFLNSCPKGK
In short: as §1

MRPS2 = MRPS2 (UniProt Q9Y399)
In short: as §1

Chain of SKIV2L (Q15477 whole entry): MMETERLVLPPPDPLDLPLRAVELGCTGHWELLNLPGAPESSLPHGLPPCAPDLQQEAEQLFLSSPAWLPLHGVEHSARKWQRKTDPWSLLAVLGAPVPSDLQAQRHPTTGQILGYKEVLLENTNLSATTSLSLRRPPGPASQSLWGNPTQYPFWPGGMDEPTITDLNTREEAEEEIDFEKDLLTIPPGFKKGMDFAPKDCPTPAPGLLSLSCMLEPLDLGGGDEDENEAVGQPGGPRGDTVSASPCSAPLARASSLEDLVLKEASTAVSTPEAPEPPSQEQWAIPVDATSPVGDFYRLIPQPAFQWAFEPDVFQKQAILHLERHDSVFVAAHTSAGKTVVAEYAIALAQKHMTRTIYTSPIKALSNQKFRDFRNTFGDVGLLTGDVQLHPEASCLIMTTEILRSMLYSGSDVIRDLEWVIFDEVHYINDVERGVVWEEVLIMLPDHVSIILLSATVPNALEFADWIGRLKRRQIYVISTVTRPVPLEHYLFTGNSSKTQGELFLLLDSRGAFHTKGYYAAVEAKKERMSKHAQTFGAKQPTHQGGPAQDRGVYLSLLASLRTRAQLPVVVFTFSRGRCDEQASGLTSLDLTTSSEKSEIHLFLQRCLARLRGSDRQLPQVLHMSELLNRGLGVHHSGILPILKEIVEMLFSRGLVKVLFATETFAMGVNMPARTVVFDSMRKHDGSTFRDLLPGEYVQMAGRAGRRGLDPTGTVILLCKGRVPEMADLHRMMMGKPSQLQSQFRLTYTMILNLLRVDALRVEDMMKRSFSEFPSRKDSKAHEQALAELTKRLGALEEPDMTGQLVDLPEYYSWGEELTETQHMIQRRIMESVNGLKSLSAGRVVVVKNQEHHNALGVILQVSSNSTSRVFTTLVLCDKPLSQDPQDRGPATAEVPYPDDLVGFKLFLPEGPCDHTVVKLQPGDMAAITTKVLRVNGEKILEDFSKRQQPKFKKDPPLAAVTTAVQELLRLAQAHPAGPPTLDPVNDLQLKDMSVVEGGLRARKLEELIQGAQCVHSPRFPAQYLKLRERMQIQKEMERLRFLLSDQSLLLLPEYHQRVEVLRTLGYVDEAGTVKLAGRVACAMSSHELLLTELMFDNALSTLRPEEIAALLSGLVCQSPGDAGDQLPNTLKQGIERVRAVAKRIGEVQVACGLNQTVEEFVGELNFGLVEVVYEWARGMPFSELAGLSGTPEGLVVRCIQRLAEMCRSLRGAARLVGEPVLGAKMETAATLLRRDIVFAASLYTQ
Chain of ATIC (P31939 whole entry, looked up): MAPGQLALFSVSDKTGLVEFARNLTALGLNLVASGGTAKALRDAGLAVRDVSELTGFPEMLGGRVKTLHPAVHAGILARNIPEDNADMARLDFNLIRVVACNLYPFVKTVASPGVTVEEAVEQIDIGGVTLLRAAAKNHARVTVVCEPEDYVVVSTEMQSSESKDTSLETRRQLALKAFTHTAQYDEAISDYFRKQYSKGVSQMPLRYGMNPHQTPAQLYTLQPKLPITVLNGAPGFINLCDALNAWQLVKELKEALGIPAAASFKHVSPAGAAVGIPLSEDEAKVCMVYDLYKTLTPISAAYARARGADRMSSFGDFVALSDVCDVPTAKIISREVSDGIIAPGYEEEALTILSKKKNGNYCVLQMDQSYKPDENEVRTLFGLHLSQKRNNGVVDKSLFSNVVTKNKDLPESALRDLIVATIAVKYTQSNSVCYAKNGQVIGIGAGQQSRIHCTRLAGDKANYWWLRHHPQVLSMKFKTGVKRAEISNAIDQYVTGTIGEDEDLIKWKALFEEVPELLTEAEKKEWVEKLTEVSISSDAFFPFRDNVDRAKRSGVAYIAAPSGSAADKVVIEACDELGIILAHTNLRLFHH

For CUGUCCU, which Kd (MRPL49) is on record?
Its Kd is 37 nM.

What does the source list for AAUAAA?
Kd (ZRANB2): 217 nM; Kd (HNRNPR): 677 nM; Kd (HNRNPF): 6290 nM

For UAUUUAU, which Kd (CSTF1) is on record?
Its Kd is 322 nM.

What about the Kd (SKIV2L) of the same sequence?
Its Kd is 902 nM.

And the Kd (ATIC)?
The Kd was 523 nM.

What about the Kd (GRSF1) of the same sequence?
The Kd was 3420 nM.

What about the Kd (MRPS2) of the same sequence?
The Kd was 27.7 nM.
